B1: IgG-Fc-10 (VHH)
VHH: QVQLQESGGGLVQAGDSLRISCRASGLTVNDLYMGWFRQAPGKEREFVGRVTPGDNTDYTYYVDSVKGRFTISRDSAKNTVYLQMNSLKLEDTAVYLCAGRRFGSSEWDYWGQGTQVTVSS
B2: IgG-Fc-16 (VHH)
VHH: QVQLQESGGGLVQAGGSLRLSCAASGRAVGNYIIGWFRQAPGKEREFVATTTRDGGSTFYADSVKGRFTISRDNAKNTVNLQMNSLEPEDTAVYYCAAKSWSVPLRPTSADFDSWGQGTQVTVSS
B3: IgG-Fc-01 (VHH)
VHH: QVQLQESGGGLVQPGGSLRLSCAASGGTSIRIGSINALAWYRQALGNQRELVAAVTEGGSTNYADFVKGRFTISRDNAQNMMYLQMNSLKPEDTAVYYCNADKVLYSRGGYYSVANDLWGQGTQVTVSS
notes: also called IgG-Fc-1

Key:
Human IgG, Fc fragment = molecular target: T1, Human IgG, Fc fragment (human); assay: method not given
T1 construct: domain: Fc; the ELISA plates were coated with 'antibody antigens', so whole IgG may have stood there; also called human IgG-Fc domain; IgG Fc domain species: human

Human IgG3 [1] = molecular target: T2, Human IgG3 (human, UniProt P01860-1 1-377); assay: SPR, IgG-Fc-16 immobilised, IgG 50 µg/ml
T2 construct: purified IgG of this subclass; also called HuIgG3
T2 sequence (P01860 other isoform, or with tags, fused parts or gaps): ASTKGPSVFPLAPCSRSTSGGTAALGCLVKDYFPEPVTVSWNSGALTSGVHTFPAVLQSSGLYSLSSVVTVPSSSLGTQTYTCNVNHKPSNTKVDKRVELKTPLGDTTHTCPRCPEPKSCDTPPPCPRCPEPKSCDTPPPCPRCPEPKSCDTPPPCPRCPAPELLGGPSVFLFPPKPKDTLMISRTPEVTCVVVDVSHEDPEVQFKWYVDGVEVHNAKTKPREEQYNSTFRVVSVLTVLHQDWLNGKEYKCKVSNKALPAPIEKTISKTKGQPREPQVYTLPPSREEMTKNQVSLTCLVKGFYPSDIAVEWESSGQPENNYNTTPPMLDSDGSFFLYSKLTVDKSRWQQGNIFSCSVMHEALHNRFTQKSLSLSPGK
Method: (§1) Broad binding reactivity of VHH fragment IgG-Fc-16 was determined using surface plasmon resonance analysis (SPR) on a BiaCore 3000. For this purpose, purified VHH fragment IgG-Fc-16 was immobilised onto the surface of a CM5 sensor chip and subsequently incubated with purified IgG antibodies (50 μg/ml) from different species in HBS-EP buffer. Binding was allowed for 1 minute at 5 μl/min followed by a dissociation step of 2.5 minutes at 5 μl/min. Binding signals (Resonance Units) were compared to background signals measured with HBS-EP buffer only. For comparison, the relative reactivity of Protein A and G towards different IgG species is also given.

Chicken IgG = Chicken IgG (chicken); assay: SPR, IgG-Fc-16 immobilised, IgG 50 µg/ml
Method: as §1

Rat IgG1a = molecular target: T3, Rat IgG1a (rat, UniProt P20759 1-326); assay: SPR, IgG-Fc-16 immobilised, IgG 50 µg/ml
T3 construct: label 'IgG1a' as printed
T3 sequence (P20759 whole entry): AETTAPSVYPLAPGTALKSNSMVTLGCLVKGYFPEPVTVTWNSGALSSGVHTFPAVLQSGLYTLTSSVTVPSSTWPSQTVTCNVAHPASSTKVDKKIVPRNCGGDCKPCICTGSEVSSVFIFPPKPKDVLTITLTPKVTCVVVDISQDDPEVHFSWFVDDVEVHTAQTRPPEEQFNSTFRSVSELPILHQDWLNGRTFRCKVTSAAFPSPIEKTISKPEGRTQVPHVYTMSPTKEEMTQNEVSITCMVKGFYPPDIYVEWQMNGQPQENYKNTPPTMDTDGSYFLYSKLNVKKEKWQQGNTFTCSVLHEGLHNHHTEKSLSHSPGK
Method: as §1

Mouse IgG 1 = Mouse IgG 1 (mouse, UniProt P01868 1-324 = IgG part); assay: SPR, IgG-Fc-16 immobilised, IgG 50 µg/ml
Method: as §1

Human IgG2 [2] = molecular target: T4, Human IgG2 (human, UniProt P01859-1 1-326 = IgG part); assay: SPR, IgG-Fc-16 immobilised, IgG 50 µg/ml
T4 construct: purified IgG of this subclass; also called HuIgG2
T4 sequence (P01859 other isoform, or with tags, fused parts or gaps): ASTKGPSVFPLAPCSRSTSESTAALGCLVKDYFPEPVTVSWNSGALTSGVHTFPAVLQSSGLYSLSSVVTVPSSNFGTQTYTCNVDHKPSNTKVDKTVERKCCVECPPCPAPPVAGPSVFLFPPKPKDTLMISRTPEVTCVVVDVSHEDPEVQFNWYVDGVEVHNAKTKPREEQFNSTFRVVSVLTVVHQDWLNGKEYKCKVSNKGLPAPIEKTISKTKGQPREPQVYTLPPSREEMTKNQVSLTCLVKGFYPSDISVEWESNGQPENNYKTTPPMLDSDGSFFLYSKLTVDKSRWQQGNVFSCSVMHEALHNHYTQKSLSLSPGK
Method: as §1

Guinea IgG = molecular target: T5, Guinea IgG (guinea pig); assay: SPR, IgG-Fc-16 immobilised, IgG 50 µg/ml
T5 construct: printed 'Guinea IgG'; also called guinea pig IgG
Method: as §1

Mouse IgG2a = Mouse IgG2a (mouse, UniProt P01863 1-330 = IgG part); assay: SPR, IgG-Fc-16 immobilised, IgG 50 µg/ml
Mouse IgG2a, sequence (P01863 whole entry): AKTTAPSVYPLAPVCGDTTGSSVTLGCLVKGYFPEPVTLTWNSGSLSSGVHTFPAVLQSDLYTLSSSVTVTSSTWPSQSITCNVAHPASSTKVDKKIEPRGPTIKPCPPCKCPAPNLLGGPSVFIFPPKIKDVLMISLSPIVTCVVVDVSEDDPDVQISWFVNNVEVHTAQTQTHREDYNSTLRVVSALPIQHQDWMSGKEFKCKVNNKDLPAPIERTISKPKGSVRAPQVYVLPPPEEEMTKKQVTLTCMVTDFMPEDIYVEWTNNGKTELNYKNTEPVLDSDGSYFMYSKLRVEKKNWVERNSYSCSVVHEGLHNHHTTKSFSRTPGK
Method: as §1

Human IgG1 [3] = molecular target: T6, Human IgG1 (human, UniProt P01857-1 1-330 = IgG part); assay: SPR, IgG-Fc-16 immobilised, IgG 50 µg/ml
T6 construct: purified IgG of this subclass; also called HuIgG1
T6 sequence (P01857 other isoform, or with tags, fused parts or gaps): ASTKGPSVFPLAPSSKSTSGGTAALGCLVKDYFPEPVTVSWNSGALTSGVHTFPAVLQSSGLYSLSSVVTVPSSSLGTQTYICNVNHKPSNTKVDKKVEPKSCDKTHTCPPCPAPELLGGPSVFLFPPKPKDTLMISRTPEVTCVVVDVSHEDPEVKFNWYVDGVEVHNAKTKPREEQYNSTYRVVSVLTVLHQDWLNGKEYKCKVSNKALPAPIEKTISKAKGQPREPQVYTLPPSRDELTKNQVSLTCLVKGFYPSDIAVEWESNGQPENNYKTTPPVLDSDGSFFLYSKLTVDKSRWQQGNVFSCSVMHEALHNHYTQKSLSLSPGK
Method: as §1

Rat IgG2a = Rat IgG2a (rat, UniProt P20760 1-322); assay: SPR, IgG-Fc-16 immobilised, IgG 50 µg/ml
Rat IgG2a, sequence (P20760 whole entry): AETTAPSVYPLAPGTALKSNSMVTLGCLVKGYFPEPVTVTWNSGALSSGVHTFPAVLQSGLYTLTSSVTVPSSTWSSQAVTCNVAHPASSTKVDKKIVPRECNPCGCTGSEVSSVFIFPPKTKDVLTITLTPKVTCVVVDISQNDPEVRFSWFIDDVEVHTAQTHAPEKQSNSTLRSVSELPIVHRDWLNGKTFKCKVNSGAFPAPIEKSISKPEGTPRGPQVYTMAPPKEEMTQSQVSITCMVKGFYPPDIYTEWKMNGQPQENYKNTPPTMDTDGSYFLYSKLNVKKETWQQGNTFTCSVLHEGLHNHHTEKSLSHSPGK
Method: as §1

Human IgG4 [4] = molecular target: T7, Human IgG4 (human, UniProt P01861-1 1-327 = IgG part); assay: SPR, IgG-Fc-16 immobilised, IgG 50 µg/ml
T7 construct: purified IgG of this subclass; also called HuIgG4
T7 sequence (P01861 other isoform, or with tags, fused parts or gaps): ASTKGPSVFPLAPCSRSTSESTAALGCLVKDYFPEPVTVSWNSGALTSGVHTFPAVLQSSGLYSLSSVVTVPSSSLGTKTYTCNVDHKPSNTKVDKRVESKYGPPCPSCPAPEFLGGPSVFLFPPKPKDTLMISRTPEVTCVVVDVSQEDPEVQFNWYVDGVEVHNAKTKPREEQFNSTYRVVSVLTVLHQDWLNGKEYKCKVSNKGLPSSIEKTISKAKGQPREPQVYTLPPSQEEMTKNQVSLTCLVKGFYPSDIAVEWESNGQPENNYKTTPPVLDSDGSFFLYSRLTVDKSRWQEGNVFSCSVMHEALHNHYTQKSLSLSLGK
Method: as §1

Rat IgG2b = Rat IgG2b (rat, UniProt P20761 1-333); assay: SPR, IgG-Fc-16 immobilised, IgG 50 µg/ml
Rat IgG2b, sequence (P20761 whole entry): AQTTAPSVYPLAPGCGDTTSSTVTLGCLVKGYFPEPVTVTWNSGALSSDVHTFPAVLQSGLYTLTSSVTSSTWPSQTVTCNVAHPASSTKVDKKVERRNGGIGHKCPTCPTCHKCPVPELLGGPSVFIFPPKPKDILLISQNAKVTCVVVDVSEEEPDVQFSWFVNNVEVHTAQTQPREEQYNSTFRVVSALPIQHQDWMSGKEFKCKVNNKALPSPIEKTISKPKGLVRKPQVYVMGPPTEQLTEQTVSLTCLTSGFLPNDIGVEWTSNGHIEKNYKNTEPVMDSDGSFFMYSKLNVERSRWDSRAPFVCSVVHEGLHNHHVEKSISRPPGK
Method: as §1

Rat IgG2c = Rat IgG2c (rat, UniProt P20762 1-329); assay: SPR, IgG-Fc-16 immobilised, IgG 50 µg/ml
Rat IgG2c, sequence (P20762 whole entry): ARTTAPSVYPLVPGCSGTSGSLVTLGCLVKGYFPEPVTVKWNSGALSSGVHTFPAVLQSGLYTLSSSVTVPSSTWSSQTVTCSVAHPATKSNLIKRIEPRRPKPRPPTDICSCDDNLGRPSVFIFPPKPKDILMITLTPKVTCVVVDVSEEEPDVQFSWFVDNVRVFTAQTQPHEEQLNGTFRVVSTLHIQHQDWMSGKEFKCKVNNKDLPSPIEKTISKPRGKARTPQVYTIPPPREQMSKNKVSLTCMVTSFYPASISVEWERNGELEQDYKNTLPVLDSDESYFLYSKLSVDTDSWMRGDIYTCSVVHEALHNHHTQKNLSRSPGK
Method: as §1

Human IgG3 [5] = molecular target: T2, Human IgG3; assay: SPR, VHH immobilised, IgG as analyte, 1:1 Langmuir
Method: (§2) Binding affinity constants of anti IgG-Fc VHH fragments were determined using surface plasmon resonance analysis (SPR) on a BiaCore 3000. For this purpose, purified VHH fragments were immobilised onto the surface of a CM5 sensor chip and subsequently incubated with different concentrations of purified IgG antibodies in HBS-EP buffer. Binding was allowed for 3 minutes at 30 μl/min followed by a dissociation step of 15 minutes at 30 μl/min. Binding curves were fitted according to a 1:1 Langmuir binding model using Biacore software.

Human IgG2 [6] = molecular target: T4, Human IgG2; assay: SPR, VHH immobilised, IgG as analyte, 1:1 Langmuir
Method: as §2

Human IgG1 [7] = molecular target: T6, Human IgG1; assay: SPR, VHH immobilised, IgG as analyte, 1:1 Langmuir
Method: as §2

Human IgG4 [8] = molecular target: T7, Human IgG4; assay: SPR, VHH immobilised, IgG as analyte, 1:1 Langmuir
Method: as §2

| Binder | Ka (Human IgG3 [5]) | Kd (Human IgG3 [5]) | koff (Human IgG3 [5]) | kon (Human IgG3 [5]) | Ka (Human IgG2 [6]) | Kd (Human IgG2 [6]) | koff (Human IgG2 [6]) | kon (Human IgG2 [6]) | Ka (Human IgG1 [7]) | Kd (Human IgG1 [7]) | koff (Human IgG1 [7]) | kon (Human IgG1 [7]) | Ka (Human IgG4 [8]) | Kd (Human IgG4 [8]) | koff (Human IgG4 [8]) | kon (Human IgG4 [8]) | other results |
| --- | --- | --- | --- | --- | --- | --- | --- | --- | --- | --- | --- | --- | --- | --- | --- | --- | --- |
| B1 |  |  |  |  |  |  |  |  |  |  |  |  |  |  |  |  | Ka (Human IgG, Fc fragment): ≥ 4e+09 M⁻¹ |
| B2 | 4.69e+07 M⁻¹ | 21.3 nM | 0.000849 s⁻¹ | 39800 M⁻¹ s⁻¹ | 6.17e+07 M⁻¹ | 16.2 nM | 0.000355 s⁻¹ | 21900 M⁻¹ s⁻¹ | 1.47e+08 M⁻¹ | 6.81 nM | 0.000211 s⁻¹ | 31000 M⁻¹ s⁻¹ | 5.89e+08 M⁻¹ | 1.7 nM | 0.000107 s⁻¹ | 62900 M⁻¹ s⁻¹ | Binding signal (RU) (Human IgG3 [1]): 499 RU; Binding signal (RU) (Chicken IgG): -3.1 RU; Binding signal (RU) (Rat IgG1a): 431 RU; Binding signal (RU) (Mouse IgG 1): 1610 RU; Binding signal (RU) (Human IgG2 [2]): 795 RU; Binding signal (RU) (Guinea IgG): 577 RU; Binding signal (RU) (Mouse IgG2a): 427 RU; Binding signal (RU) (Human IgG1 [3]): 1570 RU; Binding signal (RU) (Rat IgG2a): 444 RU; Binding signal (RU) (Human IgG4 [4]): 710 RU; Binding signal (RU) (Rat IgG2b): 512 RU; Binding signal (RU) (Rat IgG2c): 2130 RU |
| B3 | 2.09e+07 M⁻¹ | 47.8 nM | 0.000272 s⁻¹ | 5690 M⁻¹ s⁻¹ | 5.76e+08 M⁻¹ | 1.73 nM | 0.000212 s⁻¹ | 122000 M⁻¹ s⁻¹ | 1.74e+09 M⁻¹ | 0.575 nM | 0.000208 s⁻¹ | 361000 M⁻¹ s⁻¹ | 3.32e+09 M⁻¹ | 0.302 nM | 5.91e-05 s⁻¹ | 196000 M⁻¹ s⁻¹ |  |

Source: patent US20190177434A1 (published 2019)
